{"source": "patent US20050113256A1", "about": "“Methods of reducing the nicotine content of tobacco plants and tobacco plants obtained thereby” (priority 2003, published 2005)", "molecules": {"B1": {"name": "Inactive GOX: heat treated glucose oxidase, rendered substantially inactive due to the application of heat (protein, UniProt P13006 17-605, looked up)", "Glucose oxidase": "LPHYIRSNGIEASLLTDPKDVSGRTVDYIIAGGGLTGLTTAARLTENPNISVLVIESGSYESDRGPIIEDLNAYGDIFGSSVDHAYETVELATNNQTALIRSGNGLGGSTLVNGGTWTRPHKAQVDSWETVFGNEGWNWDNVAAYSLQAERARAPNAKQIAAGHYFNASCHGVNGTVHAGPRDTGDDYSPIVKALMSAVEDRGVPTKKDFGCGDPHGVSMFPNTLHEDQVRSDAAREWLLPNYQRPNLQVLTGQYVGKVLLSQNGTTPRAVGVEFGTHKGNTHNVYAKHEVLLAAGSAVSPTILEYSGIGMKSILEPLGIDTVVDLPVGLNLQDQTTATVRSRITSAGAGQGQAAWFATFNETFGDYSEKAHELLNTKLEQWAEEAVARGGFHNTTALLIQYENYRDWIVNHNVAYSELFLDTAGVASFDVWDLLPFTRGYVHILDKDPYLHHFAYDPQYFLNELDLLGQAAATQLARNISNSGAMQTYFAGETIPGDNLAYDADLSAWTEYIPYHFRPNYHGVGTCSMMPKEMGGVVDNAARVYGVQGLRVIDGSIPPTQMSSHVMTVFYAMALKISDAILEDYASMQ", "modifications": "heat-inactivated"}}, "test_system": "tobacco leaves (Nicotiana tabacum)", "assay": "Treatment of individual tobacco leaves with test solutions, nicotine reduction", "format": "in vivo", "settings": "incubated for about 3 days"}
{"molecule": "B1", "values": [{"measurement": "Reduction of Nicotine", "value": 0.1, "unit": "mg/g"}]}
